According to patent US20160039947A1 (Eli Lilly, published 2016):

These binders were tested against T1, hHGFR(cMet)-Fc (human, UniProt P08581 25-932) (assay: sandwich ELISA: hHGFR(cMet)-Fc coated, BsAb, hAxl-Fc-biotin detection).
T1 construct: Coated in the sandwich ELISA; second injection in SPR; not shown: Fc part of the bought fusion protein
Description: Two sandwich ELISAs are developed, one for detecting anti-HER-2/anti-EGFR BsAb activity and one for detecting anti-cMET/anti-Axl BsAb activity. For both ELISAs, clear 96-well round bottom high binding Immulon microtiter plates (Greiner bio-one, cat#650061) are coated overnight at 2-8° C. with 50 μL/well 1 μg/mL hHER-2-Fc or 1 μg/mL hHGFR(cMet)-Fc (both from R&D systems) in a 50 mM Na₂CO₃ pH 8 buffer. The plates are washed 4 times with PB ST and blocked with 100 μL/well casein buffer (Pierce) for 1 hr at 37° C. The plates are then washed 4 times with PBST and the parental IgG controls or BsAb IgG test articles are added at 50 μL/well and 5 μg/mL and serially diluted 1:3 down the plate. The test articles are incubated on the plate for 1 hr at 37° C. The plates are then washed 4 times with PBST and 50 μL/well 0.2 μg/mL hEGFR-Fc-biotin or hAxl-Fc-biotin (both from R&D systems) is added for 1 hr at 37° C. The plates are then washed 4 times with PBST followed by the addition of a 50 μL/well streptavidin-HRP (Jackson Labs) diluted 1:2000 in PBST. The streptavidin-HRP is incubated in each well for 1 hr at 37° C. The plates are then washed 4 times with PBST and 100 μL/well 1-component TMB substrate is added (KPL laboratories). After approximately 10 minutes, […] 1% H₃PO₄ (in H₂O) is added to each plate to quench the reaction. Absorbance (450 nm) of every well in the plates is read using a SpectraMax UV plate reader (Molecular Devices). Biotin-labeling of the hEGFR-Fc and hAxl-Fc proteins is performed using EZ-Link Sulfo-NHS-LC-Biotin (Thermo Scientific) according to the manufacturer's protocol.

T1 sequence (P08581 25-932): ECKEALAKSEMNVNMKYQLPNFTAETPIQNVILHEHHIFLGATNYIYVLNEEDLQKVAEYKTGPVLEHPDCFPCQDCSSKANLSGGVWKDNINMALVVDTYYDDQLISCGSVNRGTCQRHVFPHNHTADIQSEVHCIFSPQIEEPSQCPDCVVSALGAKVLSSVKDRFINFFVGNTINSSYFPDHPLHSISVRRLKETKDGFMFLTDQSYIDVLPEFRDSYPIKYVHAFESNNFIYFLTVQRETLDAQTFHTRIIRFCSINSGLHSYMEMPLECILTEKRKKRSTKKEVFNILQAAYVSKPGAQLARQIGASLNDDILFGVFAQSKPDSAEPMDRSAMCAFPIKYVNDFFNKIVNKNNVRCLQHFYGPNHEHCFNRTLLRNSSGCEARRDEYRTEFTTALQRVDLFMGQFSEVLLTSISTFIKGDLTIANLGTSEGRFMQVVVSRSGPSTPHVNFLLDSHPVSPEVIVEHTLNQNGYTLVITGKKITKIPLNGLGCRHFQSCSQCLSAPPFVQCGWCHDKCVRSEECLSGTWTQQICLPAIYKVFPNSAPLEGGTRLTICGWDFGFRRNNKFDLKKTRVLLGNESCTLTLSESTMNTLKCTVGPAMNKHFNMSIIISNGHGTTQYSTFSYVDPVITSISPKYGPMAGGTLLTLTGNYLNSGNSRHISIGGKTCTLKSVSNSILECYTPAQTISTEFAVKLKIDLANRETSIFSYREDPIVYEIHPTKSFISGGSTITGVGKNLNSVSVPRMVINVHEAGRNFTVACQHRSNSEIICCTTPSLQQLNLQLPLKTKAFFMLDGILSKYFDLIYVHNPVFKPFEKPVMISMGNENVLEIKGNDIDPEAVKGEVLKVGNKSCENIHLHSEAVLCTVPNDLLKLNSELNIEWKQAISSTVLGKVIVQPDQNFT

binding result | Binder
binds | MAControl λκ (anti-cMET/anti-Axl IgG BsAb without Fab redesigns) (bispecific antibody) heavy 1: EVQLVESGGGLVQPGGSLRLSCAASGYTFTSYWLHWVRQAPGKGLEWVGMIDPSNSDTRFNPNFKDRFTISADTSKNTAYLQMNSLRAEDTAVYYCATYRSYVTPLDYWGQGTLVTVSSASTKGPSVFPLAPSSKSTSGGTAALGCLVKDYFPEPVTVSWNSGALTSGVHTFPAVLQSSGLYSLSSVVTVPSSSLGTQTYICNVNHKPSNTKVDKKVEPKSCDKTHTCPPCPAPELLGGPSVFLFPPKPKDTLMISRTPEVTCVVVDVSHEDPEVKFNWYVDGVEVHNAKTKPREEQYQSTYRVVSVLTVLHQDWLNGKEYKCKVSNKALPAPIEKTISKAKGQPREPQVYTLPPSRDELTKNQVSLTCLVKGFYPSDIAVEWESNGQPENNYDTTPPVLDSDGSFFLYSDLTVDKSRWQQGNVFSCSVMHEALHNHYTQKSLSLSPG light 1: DIQMTQSPSSLSASVGDRVTITCKSSQSLLYTSSQKNYLAWYQQKPGKAPKLLIYWASTRESGVPSRFSGSGSGTDFTLTISSLQPEDFATYYCQQYYAYPWTFGQGTKVEIKGQPKAAPSVTLFPPSSEELQANKATLVCLISDFYPGAVTVAWKADSSPVKAGVETTTPSKQSNNKYAASSYLSLTPEQWKSHRSYSCQVTHEGSTVEKTVAPTEC heavy 2: EVQLVESGGGLVQPGGSLRLSCAASGFSLSGSWIHWVRQAPGKGLEWVGWINPYRGYAYYADSVKGRFTISADTSKNTAYLQMNSLRAEDTAVYYCAREYSGWGGSSVGYAMDYWGQGTLVTVSSASTKGPSVFPLAPSSKSTSGGTAALGCLVKDYFPEPVTVSWNSGALTSGVHTFPAVLQSSGLYSLSSVVTVPSSSLGTQTYICNVNHKPSNTKVDKKVEPKSCDKTHTCPPCPAPELLGGPSVFLFPPKPKDTLMISRTPEVTCVVVDVSHEDPEVKFNWYVDGVEVHNAKTKPREEQYQSTYRVVSVLTVLHQDWLNGKEYKCKVSNKALPAPIEKTISKAKGQPREPQVYTLPPSRKELTKNQVSLTCLVKGFYPSDIAVEWESNGQPENNYKTTPPVLKSDGSFFLYSKLTVDKSRWQQGNVFSCSVMHEALHNHYTQKSLSLSPG light 2: DIQMTQSPSSLSASVGDRVTITCRASQDVSTAVAWYQQKPGKAPKLLIYSASFLYSGVPSRFSGSGSGTDFTLTISSLQPEDFATYYCQQSYTTPPTFGQGTKVEIKRTVAAPSVFIFPPSDEQLKSGTASVVCLLNNFYPREAKVQWKVDNALQSGNSQESVTEQDSKDSTYSLSSTLTLSKADYEKHKVYACEVTHQGLSSPVTKSFNRGEC
binds | MADesign κλ (anti-cMET/anti-Axl IgG BsAb with Fab redesigns) (bispecific antibody, also called MA Designs) heavy 1: EVQLVESGGGLVQPGGSLRLSCAASGYTFTSYWLHWVRKAPGKGLEWVGMIDPSNSDTRFNPEFKDRFTISADTSKNTAYLQMNSLRAEDTAVYYCATYRSYVTPLDYWGQGTLVTVSSASTKGPSVFPLAPSSKSTSGGTAALGCLVKDYFPEPVTVSWNSGALTSGVATGPAVLQSSGLYSLSSVVTVPSSSLGTQTYICNVNHKPSNTKVDKKVEPKSCDKTHTCPPCPAPELLGGPSVFLFPPKPKDTLMISRTPEVTCVVVDVSHEDPEVKFNWYVDGVEVHNAKTKPREEQYQSTYRVVSVLTVLHQDWLNGKEYKCKVSNKALPAPIEKTISKAKGQPREPQVYTLPPSRDELTKNQVSLTCLVKGFYPSDIAVEWESNGQPENNYDTTPPVLDSDGSFFLYSDLTVDKSRWQQGNVFSCSVMHEALHNHYTQKSLSLSPG light 1: RIQMTQSPSSLSASVGDRVTITCKSSQSLLYTSSQKNYLAWYQDKPGKAPKLLIYWASTRESGVPSRFSGSGSGTDFTLTISSLQPEDFATYYCQQYYAYPWTFGQGTKVEIKRTVAAPSVFIFPPSDEQLKSGTASVVCYLNNFYPREAKVQWKVDNALQSGNSQESVTEQDSKDSTYSLWSTLTLSKADYEKHKVYACEVTHQGLSSPVTKSFNRGEC heavy 2: EVQLVESGGGLVQPGGSLRLSCAASGFSLSGSWIHWVRYAPGKGLEWVGWINPYRGYAYYADSVKGRFTISADTSKNTAYLQMNSLRAEDTAVYYCAREYSGWGGSSVGYAMDYWGQGTLVTVSSASTKGPSVFPLAPSSKSTSGGTAALGCLVKDYFPEPVTVSWNSGALTSGVHTFPAVLQSSGLYSLSSVVTVPSSSLGTQTYICNVNHKPSNTKVDKKVEPKSCDKTHTCPPCPAPELLGGPSVFLFPPKPKDTLMISRTPEVTCVVVDVSHEDPEVKFNWYVDGVEVHNAKTKPREEQYQSTYRVVSVLTVLHQDWLNGKEYKCKVSNKALPAPIEKTISKAKGQPREPQVYTLPPSRKELTKNQVSLTCLVKGFYPSDIAVEWESNGQPENNYKTTPPVLKSDGSFFLYSKLTVDKSRWQQGNVFSCSVMHEALHNHYTQKSLSLSPG light 2: DIQMTQSPSSLSASVGDRVTITCRASQDVSTAVAWYQRKPGKAPKLLIYSASFLYSGVPSRFSGSGSGTDFTLTISSLQPEDFATYYCQQSYTTPPTFGQGTKVEIKGQPKAAPSVTLFPPSSEELQANKATLVCLISDFYPGAVTVAWKADSSPVKAGVETTTPSKQSNNKYAASSYLSLTPEQWKSHRSYSCQVTHEGSTVEKTVAPTEC
binds | MADesign λκ (anti-cMET/anti-Axl IgG BsAb with Fab redesigns) (bispecific antibody, also called MA Designs) heavy 1: EVQLVESGGGLVQPGGSLRLSCAASGYTFTSYWLHWVRKAPGKGLEWVGMIDPSNSDTRFNPEFKDRFTISADTSKNTAYLQMNSLRAEDTAVYYCATYRSYVTPLDYWGQGTLVTVSSASTKGPSVFPLAPSSKSTSGGTAALGCLVKDYFPEPVTVSWNSGALTSGVATGPAVLQSSGLYSLSSVVTVPSSSLGTQTYICNVNHKPSNTKVDKKVEPKSCDKTHTCPPCPAPELLGGPSVFLFPPKPKDTLMISRTPEVTCVVVDVSHEDPEVKFNWYVDGVEVHNAKTKPREEQYQSTYRVVSVLTVLHQDWLNGKEYKCKVSNKALPAPIEKTISKAKGQPREPQVYTLPPSRDELTKNQVSLTCLVKGFYPSDIAVEWESNGQPENNYDTTPPVLDSDGSFFLYSDLTVDKSRWQQGNVFSCSVMHEALHNHYTQKSLSLSPG light 1: RIQMTQSPSSLSASVGDRVTITCKSSQSLLYTSSQKNYLAWYQDKPGKAPKLLIYWASTRESGVPSRFSGSGSGTDFTLTISSLQPEDFATYYCQQYYAYPWTFGQGTKVEIKGQPKAAPSVTLFPPSSEELQANKATLVCYISDFYPGAVTVAWKADSSPVKAGVETTTPSKQSNNKYAAWSYLSLTPEQWKSHRSYSCQVTHEGSTVEKTVAPTEC heavy 2: EVQLVESGGGLVQPGGSLRLSCAASGFSLSGSWIHWVRYAPGKGLEWVGWINPYRGYAYYADSVKGRFTISADTSKNTAYLQMNSLRAEDTAVYYCAREYSGWGGSSVGYAMDYWGQGTLVTVSSASTKGPSVFPLAPSSKSTSGGTAALGCLVKDYFPEPVTVSWNSGALTSGVHTFPAVLQSSGLYSLSSVVTVPSSSLGTQTYICNVNHKPSNTKVDKKVEPKSCDKTHTCPPCPAPELLGGPSVFLFPPKPKDTLMISRTPEVTCVVVDVSHEDPEVKFNWYVDGVEVHNAKTKPREEQYQSTYRVVSVLTVLHQDWLNGKEYKCKVSNKALPAPIEKTISKAKGQPREPQVYTLPPSRKELTKNQVSLTCLVKGFYPSDIAVEWESNGQPENNYKTTPPVLKSDGSFFLYSKLTVDKSRWQQGNVFSCSVMHEALHNHYTQKSLSLSPG light 2: DIQMTQSPSSLSASVGDRVTITCRASQDVSTAVAWYQRKPGKAPKLLIYSASFLYSGVPSRFSGSGSGTDFTLTISSLQPEDFATYYCQQSYTTPPTFGQGTKVEIKRTVAAPSVFIFPPSDEQLKSGTASVVCLLNNFYPREAKVQWKVDNALQSGNSQESVTEQDSKDSTYSLSSTLTLSKADYEKHKVYACEVTHQGLSSPVTKSFNRGEC
